Experimental data: patent publication US20250073311A1, “DOSAGE REGIME” (ZEALAND PHARMA A/S, priority 2021, published 2025)
Numbered stars: 1 amine (or outer) side, 2 acyl side, 3 side chain; on linkers, the order of the positions; unused ones are H or OH. Square brackets hold non-standard residues; d marks the D form. Side chains are listed from the residue outwards. Ends that are not written are not given here. Peptide text beside a SMILES is read from it. * marks the point of attachment. C20 diacid = O=C(O)CCCCCCCCCCCCCCCCCCC(=O)*; C18 diacid = O=C(O)CCCCCCCCCCCCCCCCC(=O)*; γGlu = O=C(O)[C@H](CCC(=O)[*:2])N[*:1]; AEEA = NCCOCCOCC(=O)O; Aib = CC(C)(N)C(=O)O

T1: human GLP-2 receptor (Homo sapiens, UniProt O95838, D470N)
T1 sequence (O95838 1-553 D470N): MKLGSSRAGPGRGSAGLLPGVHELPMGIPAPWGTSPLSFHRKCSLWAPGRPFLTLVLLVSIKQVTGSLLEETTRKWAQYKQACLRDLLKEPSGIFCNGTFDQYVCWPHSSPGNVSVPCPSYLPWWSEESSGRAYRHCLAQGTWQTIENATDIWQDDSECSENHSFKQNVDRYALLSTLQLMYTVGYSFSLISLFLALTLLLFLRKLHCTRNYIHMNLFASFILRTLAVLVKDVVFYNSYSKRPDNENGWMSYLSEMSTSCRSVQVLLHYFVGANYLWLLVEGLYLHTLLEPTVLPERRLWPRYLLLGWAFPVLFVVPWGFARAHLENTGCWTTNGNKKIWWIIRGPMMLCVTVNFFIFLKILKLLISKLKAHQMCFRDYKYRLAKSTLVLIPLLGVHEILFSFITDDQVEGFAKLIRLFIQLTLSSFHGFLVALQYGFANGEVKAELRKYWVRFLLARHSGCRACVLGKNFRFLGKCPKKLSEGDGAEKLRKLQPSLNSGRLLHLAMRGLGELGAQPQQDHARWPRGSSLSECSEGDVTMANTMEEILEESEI

T2: human GLP-2 receptor (hGLP2-R) (human, UniProt O95838)
T2 sequence: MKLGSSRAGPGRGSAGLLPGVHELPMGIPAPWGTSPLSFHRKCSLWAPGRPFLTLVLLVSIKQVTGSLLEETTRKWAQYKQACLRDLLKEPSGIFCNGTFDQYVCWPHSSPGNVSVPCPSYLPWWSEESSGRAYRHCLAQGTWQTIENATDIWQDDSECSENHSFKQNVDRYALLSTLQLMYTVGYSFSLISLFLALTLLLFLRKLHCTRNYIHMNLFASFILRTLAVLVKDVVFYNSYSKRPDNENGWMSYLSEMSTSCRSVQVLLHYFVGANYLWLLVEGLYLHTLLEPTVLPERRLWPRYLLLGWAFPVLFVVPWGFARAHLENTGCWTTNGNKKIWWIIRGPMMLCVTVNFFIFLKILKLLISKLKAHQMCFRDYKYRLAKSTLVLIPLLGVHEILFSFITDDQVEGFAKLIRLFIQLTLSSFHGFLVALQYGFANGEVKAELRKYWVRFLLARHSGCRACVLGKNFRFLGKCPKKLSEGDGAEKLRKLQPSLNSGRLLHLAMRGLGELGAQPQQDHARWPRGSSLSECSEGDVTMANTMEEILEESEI


Key:
[1] = biological target: T1, human GLP-2 receptor; experiment: GLP-2 receptor potency assay (cAMP AlphaScreen); format: cell-based; settings: HEK293 cells expressing human GLP-2R, cAMP response; N/A = no detectable activity
Source text: The hGLP2-R was purchased from MRC-geneservice, Babraham, Cambridge as an Image clone: 5363415 (11924-117). For subcloning into a mammalian expression vector, primers for subcloning were obtained from DNA-Technology, Risskov, Denmark. The 5′ and 3′ primers used for the PCR reaction include terminal restriction sites for cloning and the context of the 5′ primer is modified to a Kozak consensus without changing the sequence of the product encoded by the ORF. A standard PCR reaction was run using Image clone 5363415 (11924-117) as a template with the above mentioned primers and Polymerase Herculase II Fusion in a total vol. of 50 μl. The generated PCR product was purified using GFX PCR and Gel band purification kit, digested with restriction enzymes and cloned into the mammalian expression vector using Rapid DNA Ligation Kit. Ligation reaction was transformed to XL10 Gold Ultracompetent cells and colonies were picked for DNA production using Endofree Plasmid maxi kit. Subsequent sequence analysis was conducted by MWG Eurofins, Germany.
HEK293 cells were transfected using the Lipofectamine PLUS transfection method. The day before transfection, HEK293 cells were seeded in two T75 flasks at a density of 2×10^6 cells/T75 flask in cell culturing medium without antibiotics. […] Following 4 weeks in G418 selection, clones were picked and tested in a functional GLP-2 receptor potency assay as described below.
Data from test compounds eliciting an increase in the intracellular level of cAMP were normalized relative to the positive and negative control (vehicle) to calculate the EC50 and maximal response from the concentration response curve.

[2] = biological target: human GLP-2 receptor (hGLP2-R) (human) (UniProt O95838)
[3] = biological target: human glucagon-like peptide 1 receptor (GLP-1R) (human) (UniProt P43220)
Sequence of human glucagon-like peptide 1 receptor (GLP-1R) (human) (P43220 24-463): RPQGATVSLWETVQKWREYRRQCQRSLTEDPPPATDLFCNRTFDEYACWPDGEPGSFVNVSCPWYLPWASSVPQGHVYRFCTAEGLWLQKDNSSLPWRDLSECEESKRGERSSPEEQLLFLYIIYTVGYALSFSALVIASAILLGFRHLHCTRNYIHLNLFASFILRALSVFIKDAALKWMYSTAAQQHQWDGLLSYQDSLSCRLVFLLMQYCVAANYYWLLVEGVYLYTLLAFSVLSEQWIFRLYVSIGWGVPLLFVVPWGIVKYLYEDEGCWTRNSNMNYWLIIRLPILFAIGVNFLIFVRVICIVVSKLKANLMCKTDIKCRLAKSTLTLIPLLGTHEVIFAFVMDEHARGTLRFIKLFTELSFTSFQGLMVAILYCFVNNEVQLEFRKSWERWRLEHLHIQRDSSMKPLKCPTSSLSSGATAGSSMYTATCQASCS

[4] = biological target: human glucagon-like peptide 1 receptor (GLP-1R) (human, UniProt P43220); experiment: cell-based or functional assay
[5] = biological target: T2, human GLP-2 receptor (hGLP2-R); experiment: cell-based or functional assay

Molecule	EC50 [1] [pM]	EC50 GLP-2 (nM), cAMP AlphaScreen [2] [nM]	EC50 GLP-1 (nM), cAMP AlphaScreen [3] [nM]	EC50 GLP-1 (nM), cAMP AlphaScreen [4] [nM]	EC50 GLP-2 (nM), cAMP AlphaScreen [5] [nM]
CC[C@H](C)[C@H](NC(=O)[C@H](Cc1ccccc1)NC(=O)[C@H](CC(=O)O)NC(=O)[C@H](CCCNC(=N)N)NC(=O)[C@H](C)NC(=O)[C@H](C)NC(=O)[C@H](CCC(N)=O)NC(=O)[C@H](CCC(=O)O)NC(=O)[C@H](CC(=O)O)NC(=O)[C@H](CC(C)C)NC(=O)[C@@H](NC(=O)[C@@H](NC(=O)[C@H](C)NC(=O)[C@H](CCCCNC(=O)COCCOCCNC(=O)[C@H](CCCCN)NC(=O)[C@H](CCC(=O)O)NC(=O)[C@H](CCCCN)NC(=O)CC[C@H](NC(=O)CCCCCCCCCCCCCCCCCCC(=O)O)C(=O)O)NC(=O)[C@H](CCC(=O)O)NC(=O)[C@H](CO)NC(=O)[C@@H](NC(=O)[C@H](Cc1ccccc1)NC(=O)[C@H](CO)NC(=O)CNC(=O)[C@H](CCC(=O)O)NC(=O)C(C)(C)NC(=O)[C@@H](N)Cc1c[nH]cn1)[C@@H](C)O)[C@@H](C)O)[C@@H](C)CC)C(=O)N[C@@H](C)C(=O)N[C@@H](Cc1c[nH]c2ccccc12)C(=O)N[C@@H](CC(C)C)C(=O)N[C@H](C(=O)N[C@@H](CCC(=O)O)C(=O)N[C@@H](Cc1c[nH]cn1)C(=O)N[C@@H](CCCCN)C(=O)N[C@H](C(=O)N[C@H](C(=O)N[C@@H](CC(=O)O)C(=O)O)[C@@H](C)O)[C@@H](C)CC)[C@@H](C)CC [Compound 53] (H-H[Aib]EGSFTSEK([AEEA-Lys-Glu-Lys-γGlu-C20 diacid])ATILDEQAARDFIAWLIEHKITD-OH)	240	–	–	–	–
H[Aib]DGSFSSELATILDK([γGlu-C18 diacid])QAARDFIAWLIQHKITD (ends and bridges not checked) [reference compound A]	–	0.083	0.49	–	–
H-H[Aib]EGTFTSELATILDK([γGlu-C20 diacid])QAARDFIAWLIQHKITD-OH (SMILES CC[C@H](C)[C@H](NC(=O)[C@H](Cc1ccccc1)NC(=O)[C@H](CC(=O)O)NC(=O)[C@H](CCCNC(=N)N)NC(=O)[C@H](C)NC(=O)[C@H](C)NC(=O)[C@H](CCC(N)=O)NC(=O)[C@H](CCCCNC(=O)CC[C@H](NC(=O)CCCCCCCCCCCCCCCCCCC(=O)O)C(=O)O)NC(=O)[C@H](CC(=O)O)NC(=O)[C@H](CC(C)C)NC(=O)[C@@H](NC(=O)[C@@H](NC(=O)[C@H](C)NC(=O)[C@H](CC(C)C)NC(=O)[C@H](CCC(=O)O)NC(=O)[C@H](CO)NC(=O)[C@@H](NC(=O)[C@H](Cc1ccccc1)NC(=O)[C@@H](NC(=O)CNC(=O)[C@H](CCC(=O)O)NC(=O)C(C)(C)NC(=O)[C@@H](N)Cc1c[nH]cn1)[C@@H](C)O)[C@@H](C)O)[C@@H](C)O)[C@@H](C)CC)C(=O)N[C@@H](C)C(=O)N[C@@H](Cc1c[nH]c2ccccc12)C(=O)N[C@@H](CC(C)C)C(=O)N[C@H](C(=O)N[C@@H](CCC(N)=O)C(=O)N[C@@H](Cc1c[nH]cn1)C(=O)N[C@@H](CCCCN)C(=O)N[C@H](C(=O)N[C@H](C(=O)N[C@@H](CC(=O)O)C(=O)O)[C@@H](C)O)[C@@H](C)CC)[C@@H](C)CC) [Compound 41]	–	–	–	0.048	0.62
H-H[Aib]EGSFTSELATILDK([AEEA-AEEA-γGlu-C20 diacid])KAARDFIAWLIEHKITD-OH (SMILES CC[C@H](C)[C@H](NC(=O)[C@H](Cc1ccccc1)NC(=O)[C@H](CC(=O)O)NC(=O)[C@H](CCCNC(=N)N)NC(=O)[C@H](C)NC(=O)[C@H](C)NC(=O)[C@H](CCCCN)NC(=O)[C@H](CCCCNC(=O)COCCOCCNC(=O)COCCOCCNC(=O)CC[C@H](NC(=O)CCCCCCCCCCCCCCCCCCC(=O)O)C(=O)O)NC(=O)[C@H](CC(=O)O)NC(=O)[C@H](CC(C)C)NC(=O)[C@@H](NC(=O)[C@@H](NC(=O)[C@H](C)NC(=O)[C@H](CC(C)C)NC(=O)[C@H](CCC(=O)O)NC(=O)[C@H](CO)NC(=O)[C@@H](NC(=O)[C@H](Cc1ccccc1)NC(=O)[C@H](CO)NC(=O)CNC(=O)[C@H](CCC(=O)O)NC(=O)C(C)(C)NC(=O)[C@@H](N)Cc1c[nH]cn1)[C@@H](C)O)[C@@H](C)O)[C@@H](C)CC)C(=O)N[C@@H](C)C(=O)N[C@@H](Cc1c[nH]c2ccccc12)C(=O)N[C@@H](CC(C)C)C(=O)N[C@H](C(=O)N[C@@H](CCC(=O)O)C(=O)N[C@@H](Cc1c[nH]cn1)C(=O)N[C@@H](CCCCN)C(=O)N[C@H](C(=O)N[C@H](C(=O)N[C@@H](CC(=O)O)C(=O)O)[C@@H](C)O)[C@@H](C)CC)[C@@H](C)CC) [Compound 43]	–	–	–	0.096	0.15
H-H[Aib]EGTFTSELATILDEQAAK([AEEA-AEEA-γGlu-C20 diacid])DFIAWLIEHKITD-OH (SMILES CC[C@H](C)[C@H](NC(=O)[C@H](Cc1ccccc1)NC(=O)[C@H](CC(=O)O)NC(=O)[C@H](CCCCNC(=O)COCCOCCNC(=O)COCCOCCNC(=O)CC[C@H](NC(=O)CCCCCCCCCCCCCCCCCCC(=O)O)C(=O)O)NC(=O)[C@H](C)NC(=O)[C@H](C)NC(=O)[C@H](CCC(N)=O)NC(=O)[C@H](CCC(=O)O)NC(=O)[C@H](CC(=O)O)NC(=O)[C@H](CC(C)C)NC(=O)[C@@H](NC(=O)[C@@H](NC(=O)[C@H](C)NC(=O)[C@H](CC(C)C)NC(=O)[C@H](CCC(=O)O)NC(=O)[C@H](CO)NC(=O)[C@@H](NC(=O)[C@H](Cc1ccccc1)NC(=O)[C@@H](NC(=O)CNC(=O)[C@H](CCC(=O)O)NC(=O)C(C)(C)NC(=O)[C@@H](N)Cc1c[nH]cn1)[C@@H](C)O)[C@@H](C)O)[C@@H](C)O)[C@@H](C)CC)C(=O)N[C@@H](C)C(=O)N[C@@H](Cc1c[nH]c2ccccc12)C(=O)N[C@@H](CC(C)C)C(=O)N[C@H](C(=O)N[C@@H](CCC(=O)O)C(=O)N[C@@H](Cc1c[nH]cn1)C(=O)N[C@@H](CCCCN)C(=O)N[C@H](C(=O)N[C@H](C(=O)N[C@@H](CC(=O)O)C(=O)O)[C@@H](C)O)[C@@H](C)CC)[C@@H](C)CC) [Compound 46]	–	–	–	0.26	0.38
H[Aib]EGSFSSELATILDK([γGlu-C18 diacid])QAARDFIAWLIQHKITD (ends and bridges not checked) [reference compound B]	–	0.28	3.9	–	–
H-H[Aib]EGSFTSELATILEGK([AEEA-AEEA-γGlu-C20 diacid])AARDFIAWLIEHKITD-OH (SMILES CC[C@H](C)[C@H](NC(=O)[C@H](Cc1ccccc1)NC(=O)[C@H](CC(=O)O)NC(=O)[C@H](CCCNC(=N)N)NC(=O)[C@H](C)NC(=O)[C@H](C)NC(=O)[C@H](CCCCNC(=O)COCCOCCNC(=O)COCCOCCNC(=O)CC[C@H](NC(=O)CCCCCCCCCCCCCCCCCCC(=O)O)C(=O)O)NC(=O)CNC(=O)[C@H](CCC(=O)O)NC(=O)[C@H](CC(C)C)NC(=O)[C@@H](NC(=O)[C@@H](NC(=O)[C@H](C)NC(=O)[C@H](CC(C)C)NC(=O)[C@H](CCC(=O)O)NC(=O)[C@H](CO)NC(=O)[C@@H](NC(=O)[C@H](Cc1ccccc1)NC(=O)[C@H](CO)NC(=O)CNC(=O)[C@H](CCC(=O)O)NC(=O)C(C)(C)NC(=O)[C@@H](N)Cc1c[nH]cn1)[C@@H](C)O)[C@@H](C)O)[C@@H](C)CC)C(=O)N[C@@H](C)C(=O)N[C@@H](Cc1c[nH]c2ccccc12)C(=O)N[C@@H](CC(C)C)C(=O)N[C@H](C(=O)N[C@@H](CCC(=O)O)C(=O)N[C@@H](Cc1c[nH]cn1)C(=O)N[C@@H](CCCCN)C(=O)N[C@H](C(=O)N[C@H](C(=O)N[C@@H](CC(=O)O)C(=O)O)[C@@H](C)O)[C@@H](C)CC)[C@@H](C)CC) [Compound 44]	–	–	–	0.063	0.14
H-H[Aib]EGSFTSELATILDEQAAK([AEEA-AEEA-γGlu-C20 diacid])DFIAWLIEHKITD-OH [Compound 45]	–	–	–	1.4	0.36
H-H[Aib]EGSFTSEK([AEEA-AEEA-γGlu-C20 diacid])ATILDEQAARDFIAWLIEHKITD-OH [Compound 42]	–	–	–	0.067	0.33
